Results: US20260356940 (published 2026)
Numbering of substitutions follows the chain as printed.

T1: SLAMF6 (human, UniProt Q96DU3)
T1 chain: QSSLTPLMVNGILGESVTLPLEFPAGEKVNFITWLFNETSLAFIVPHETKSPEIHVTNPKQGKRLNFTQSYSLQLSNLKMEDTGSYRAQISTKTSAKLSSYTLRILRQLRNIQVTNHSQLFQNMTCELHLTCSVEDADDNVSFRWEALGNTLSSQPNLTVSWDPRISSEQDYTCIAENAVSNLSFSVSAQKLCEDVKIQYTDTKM

B1: LB-20H10 (antibody, V domains shown)
VH: QVQLQQSGAELVRPGTSVKMSCKAAGYTFTNYWIGWVKQRPGHGLEWIGDIYPGGGYTHHNEKFKGKATLTADTSSSTAYMQLSSLTSEDSAIYYCARSVLPGFAYWGQGTLVTVSA
VL: DIVMTQSHKFMSTSVGDRVSITCKASQDVNTAVAWCQQKPGQSPKLLIYSASYRFTGVPDRFTGSGSGTDFTFTISSVQAEDLAVYFCQQHYSTPYTFGGGTKLEIK
B2: LB-116 (antibody, V domains shown)
VH: EVQLLESGGGLVQPGGSLRLSCAASGFTFSYSYMYWVRQAPGKGLEWVSSISSSGGSTSYADSVKGRFTISRDNSKNTLYLQMNSLRAEDTAVYYCARPNVDSYMDYWGQGTLVTVSS
VL: DIQMTQSPSSLSASVGDHVTITCRASQSISSYLNWYQQKPGKAPKLLIYAASSLQSGVPSRFSGSGSGTDFTLTISSLQPEDFATYYCQQSYIYLPFTFGQGTKLEIK
B3: LB-302 (antibody, V domains shown)
VH: EVQLLESGGGLVQPGGSLRLSCAASGFTFGGYGMSWVRQAPGKGLEWVSYIGYGGSYTYYADSVKGRFTISRDNSKNTLYLQMNSLRAEDTAVYYCARDGAGSYGFFDYWGQGTLVTVSS
VL: B2 VL with S91F, I93T, Y94N, L95P, P96L, F97L
B4: LB-032 (antibody, V domains shown)
VH: EVQLLESGGGLVQPGGSLRLSCAASGFTFGSYGMSWVRQAPGKGLEWVSYISYSGSYTYYADSVKGRFTISRDNSKNTLYLQMNSLRAEDTAVYYCARGADYYSVLDYWGQGTLVTVSS
VL: B2 VL with S91F, Y92S, I93T, Y94S, L95P, F97S
B5: LB-031 (antibody, V domains shown)
VH: EVQLLESGGGLVQPGGSLRLSCAASGFTFGSYYMGWVRQAPGKGLEWVSYISGYSGYTYYADSVKGRFTISRDNSKNTLYLQMNSLRAEDTAVYYCARFSSPAGYPRMDYWGQGTLVTVSS
VL: DIQMTQSPSSLSASVGDHVTITCRASQSISSYLNWYQQKPGKAPKLLIYAASSLQSGVPSRFSGSGSGTDFTLTISSLQPEDFATYYCQQYYTLPTFGQGTKLEIK

Molecular target: T1, SLAMF6
Experiment: SPR
B1 gave a Kd of 4.1 nM. B2 gave a Kd of 6 nM. With B3 the Kd was 16 nM. With B4 the Kd was 12 nM. In the case of B5, the Kd is reported as 0.38 nM.
